Assay results taken from patent US20200317768A1 (published 2020).
Numbering of substitutions follows the chain as printed.

T1: human FcγRIIaH extracellular domain, His-tagged (human, UniProt P12318 34-217)
T1 construct: also called human FcγRIIa (type H); FcgRIIaH
T1 sequence: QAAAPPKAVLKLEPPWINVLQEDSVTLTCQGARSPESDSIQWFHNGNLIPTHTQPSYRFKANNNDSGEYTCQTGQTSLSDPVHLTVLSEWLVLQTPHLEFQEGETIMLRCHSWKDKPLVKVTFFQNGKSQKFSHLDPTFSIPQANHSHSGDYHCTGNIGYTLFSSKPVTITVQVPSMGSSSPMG

T2: cynomolgus monkey FcγRIIb extracellular domain, His-tagged (cynomolgus monkey)
T2 construct: also called cyno FcγRIIb; cynoFcγRIIb
T2 chain: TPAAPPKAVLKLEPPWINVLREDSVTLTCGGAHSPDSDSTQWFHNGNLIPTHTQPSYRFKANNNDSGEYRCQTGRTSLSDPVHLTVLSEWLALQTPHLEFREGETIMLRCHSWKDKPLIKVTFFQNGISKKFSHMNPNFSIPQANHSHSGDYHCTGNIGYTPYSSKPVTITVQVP

T3: cynomolgus monkey FcγRIIa2 extracellular domain, His-tagged (cynomolgus monkey)
T3 construct: also called cyno FcγRIIa2; cynoFcgRIIa2
T3 chain: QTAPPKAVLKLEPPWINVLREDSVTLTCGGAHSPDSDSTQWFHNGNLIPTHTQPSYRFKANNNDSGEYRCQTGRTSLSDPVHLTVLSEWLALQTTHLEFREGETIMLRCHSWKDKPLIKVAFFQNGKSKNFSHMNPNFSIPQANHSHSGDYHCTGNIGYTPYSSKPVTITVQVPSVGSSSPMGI

T4: human FcγRIIb extracellular domain, His-tagged (human, UniProt P31994 43-217)
T4 construct: also called FcgRIIb (human)
T4 sequence: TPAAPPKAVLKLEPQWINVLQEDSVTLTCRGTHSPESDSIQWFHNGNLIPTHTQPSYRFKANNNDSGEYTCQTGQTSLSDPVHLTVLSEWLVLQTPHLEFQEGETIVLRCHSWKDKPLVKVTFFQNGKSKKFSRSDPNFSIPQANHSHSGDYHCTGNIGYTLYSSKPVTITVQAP

T5: cynomolgus monkey FcγRIIa1 extracellular domain, His-tagged (cynomolgus monkey)
T5 construct: also called cyno FcγRIIa1; cynoFcgRIIa1
T5 chain: T3 chain with T95P, A121T, K127I, S128A, N130K, N135D, Q142R

T6: human FcγRIIaR extracellular domain, His-tagged (human, UniProt P12318 34-217)
T6 construct: also called human FcγRIIa (type R); FcgRIIaR
T6 chain: T1 sequence with H134R

T7: cynomolgus monkey FcγRIIa3 extracellular domain, His-tagged (cynomolgus monkey)
T7 construct: also called cyno FcγRIIa3; cynoFcgRIIa3
T7 chain: T3 chain with K127I, N130K, H133P, Q142R

B1: M103205H795-MY069/M103202L889-SK1 (antibody, human IgG1, kappa)
heavy: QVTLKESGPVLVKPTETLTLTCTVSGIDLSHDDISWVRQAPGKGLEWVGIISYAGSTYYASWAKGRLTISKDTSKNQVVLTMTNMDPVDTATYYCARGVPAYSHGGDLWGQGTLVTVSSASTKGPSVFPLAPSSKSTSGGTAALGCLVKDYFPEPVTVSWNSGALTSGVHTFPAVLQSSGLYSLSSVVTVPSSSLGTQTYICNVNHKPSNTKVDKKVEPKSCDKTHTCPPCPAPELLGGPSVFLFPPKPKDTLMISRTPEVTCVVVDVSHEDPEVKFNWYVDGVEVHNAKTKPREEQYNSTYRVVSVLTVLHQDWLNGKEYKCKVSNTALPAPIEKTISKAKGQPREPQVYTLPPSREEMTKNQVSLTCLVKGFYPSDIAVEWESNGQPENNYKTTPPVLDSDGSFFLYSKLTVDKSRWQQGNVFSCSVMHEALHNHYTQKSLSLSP
light: DIVMTQSPATLSLSPGERATLSCTSSQSVYHANWLSWFQQKPGQPPKLLIYWASTLAYGVPSRFSGSGSGTDFTLTISSLQPEDAATYYCAGGYGGGRYAFGQGTKVEIKRTVAAPSVFIFPPSDEQLKSGTASVVCLLNNFYPREAKVQWKVDNALQSGNSQESVTEQDSKDSTYSLSSTLTLSKADYEKHKVYACEVTHQGLSSPVTKSFNRGEC
notes: Substitution put into M103205H795-SG1
B2: M103205H795-MY071/M103202L889-SK1 (antibody, human IgG1, kappa)
heavy: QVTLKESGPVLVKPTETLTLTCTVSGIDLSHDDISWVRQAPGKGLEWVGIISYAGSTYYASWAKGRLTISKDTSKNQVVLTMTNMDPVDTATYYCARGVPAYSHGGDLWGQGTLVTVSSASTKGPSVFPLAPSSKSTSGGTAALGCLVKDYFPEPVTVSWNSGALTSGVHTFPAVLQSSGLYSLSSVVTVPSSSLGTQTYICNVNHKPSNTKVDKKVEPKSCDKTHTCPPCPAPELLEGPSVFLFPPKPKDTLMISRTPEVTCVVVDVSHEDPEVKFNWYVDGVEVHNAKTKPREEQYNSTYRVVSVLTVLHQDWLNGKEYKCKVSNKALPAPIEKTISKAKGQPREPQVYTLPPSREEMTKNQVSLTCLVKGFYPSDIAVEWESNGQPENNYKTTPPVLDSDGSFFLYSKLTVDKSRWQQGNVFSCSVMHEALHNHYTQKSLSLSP
light: B1 light
notes: as for B1
B3: M103205H795-MY072/M103202L889-SK1 (antibody, human IgG1, kappa)
heavy: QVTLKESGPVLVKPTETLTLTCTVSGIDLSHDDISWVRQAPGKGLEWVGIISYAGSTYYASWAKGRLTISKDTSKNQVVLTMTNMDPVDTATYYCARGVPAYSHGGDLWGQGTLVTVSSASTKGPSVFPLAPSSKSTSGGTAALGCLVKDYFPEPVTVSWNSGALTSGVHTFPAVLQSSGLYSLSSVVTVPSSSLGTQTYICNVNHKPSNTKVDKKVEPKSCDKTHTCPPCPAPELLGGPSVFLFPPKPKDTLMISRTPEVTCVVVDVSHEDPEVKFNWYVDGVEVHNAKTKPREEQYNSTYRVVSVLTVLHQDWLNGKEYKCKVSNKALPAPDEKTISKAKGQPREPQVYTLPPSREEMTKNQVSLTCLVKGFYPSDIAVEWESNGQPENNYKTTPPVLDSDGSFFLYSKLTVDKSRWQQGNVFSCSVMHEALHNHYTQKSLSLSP
light: B1 light
notes: as for B1
B4: M103205H795-MY124/M103202L889-SK1 (antibody, human IgG1, kappa)
heavy: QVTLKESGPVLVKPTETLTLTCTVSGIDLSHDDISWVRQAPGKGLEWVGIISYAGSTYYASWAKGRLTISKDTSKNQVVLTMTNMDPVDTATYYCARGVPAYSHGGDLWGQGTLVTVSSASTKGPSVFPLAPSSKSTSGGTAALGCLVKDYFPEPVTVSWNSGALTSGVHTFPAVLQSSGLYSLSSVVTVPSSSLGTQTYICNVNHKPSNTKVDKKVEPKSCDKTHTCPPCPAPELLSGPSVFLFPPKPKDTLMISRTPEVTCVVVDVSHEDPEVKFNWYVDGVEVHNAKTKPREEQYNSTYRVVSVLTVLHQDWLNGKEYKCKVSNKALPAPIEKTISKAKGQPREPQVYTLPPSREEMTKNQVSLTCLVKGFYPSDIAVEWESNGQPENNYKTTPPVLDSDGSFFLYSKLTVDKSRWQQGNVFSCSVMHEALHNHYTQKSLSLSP
light: B1 light
notes: as for B1
B5: M103205H795-MY073/M103202L889-SK1 (antibody, human IgG1, kappa)
heavy: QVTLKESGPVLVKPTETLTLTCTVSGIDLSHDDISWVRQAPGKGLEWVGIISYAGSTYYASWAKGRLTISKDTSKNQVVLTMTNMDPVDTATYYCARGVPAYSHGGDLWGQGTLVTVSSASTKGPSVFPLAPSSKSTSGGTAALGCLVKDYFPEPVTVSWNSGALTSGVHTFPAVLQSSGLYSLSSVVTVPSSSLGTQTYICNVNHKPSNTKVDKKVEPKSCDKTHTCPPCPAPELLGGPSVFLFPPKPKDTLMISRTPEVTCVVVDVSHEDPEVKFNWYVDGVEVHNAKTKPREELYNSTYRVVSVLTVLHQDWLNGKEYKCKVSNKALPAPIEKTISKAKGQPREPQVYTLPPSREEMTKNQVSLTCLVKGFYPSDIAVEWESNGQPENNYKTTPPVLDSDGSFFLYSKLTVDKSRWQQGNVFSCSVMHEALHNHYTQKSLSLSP
light: B1 light
notes: as for B1
B6: M103205H795-MY070/M103202L889-SK1 (antibody, human IgG1, kappa)
heavy: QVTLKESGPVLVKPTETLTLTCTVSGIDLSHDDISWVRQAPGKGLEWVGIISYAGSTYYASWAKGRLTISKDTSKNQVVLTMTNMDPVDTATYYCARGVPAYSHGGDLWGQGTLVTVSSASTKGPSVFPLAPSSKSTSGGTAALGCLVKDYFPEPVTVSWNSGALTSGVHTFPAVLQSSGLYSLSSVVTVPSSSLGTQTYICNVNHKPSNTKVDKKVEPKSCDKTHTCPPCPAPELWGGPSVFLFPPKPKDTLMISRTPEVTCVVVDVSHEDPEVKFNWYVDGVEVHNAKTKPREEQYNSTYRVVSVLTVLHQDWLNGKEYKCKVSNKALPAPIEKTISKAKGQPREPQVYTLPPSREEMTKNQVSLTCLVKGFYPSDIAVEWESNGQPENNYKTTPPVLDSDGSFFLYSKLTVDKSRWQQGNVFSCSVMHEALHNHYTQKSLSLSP
light: B1 light
notes: as for B1
B7: M103205H795-MY196/M103202L889-SK1 (antibody, human IgG1, kappa)
heavy: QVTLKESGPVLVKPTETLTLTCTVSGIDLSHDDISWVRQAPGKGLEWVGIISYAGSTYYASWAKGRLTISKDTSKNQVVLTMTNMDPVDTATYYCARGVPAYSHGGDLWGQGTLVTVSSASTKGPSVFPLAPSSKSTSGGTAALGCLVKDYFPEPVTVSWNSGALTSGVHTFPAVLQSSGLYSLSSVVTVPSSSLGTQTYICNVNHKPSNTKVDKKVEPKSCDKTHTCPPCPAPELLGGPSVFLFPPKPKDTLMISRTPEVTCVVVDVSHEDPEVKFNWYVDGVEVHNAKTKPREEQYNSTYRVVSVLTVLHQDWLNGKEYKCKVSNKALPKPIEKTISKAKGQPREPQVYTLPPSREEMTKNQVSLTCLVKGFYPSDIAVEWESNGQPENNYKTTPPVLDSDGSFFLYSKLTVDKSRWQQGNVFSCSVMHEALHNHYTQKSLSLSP
light: B1 light
notes: as for B1

target: T1, human FcγRIIaH extracellular domain, …; experiment: SPR; KD of SG1 / KD of variant;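 note: relative to parent M103205H795-SG1 carrying the SG1 human heavy chain constant region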

| Binder | KD fold (SG1 = 1) [fold] |
| --- | --- |
| B1 | 1.6 |
| B2 | 1.7 |
| B3 | 2.8 |
| B4 | 4.9 |
| B5 | 2.9 |
| B6 | 1.4 |
| B7 | 1.4 |

Target: T2, cynomolgus monkey FcγRIIb extracellular …
Experiment: SPR; KD of SG1 / KD of variant;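 note: relative to parent M103205H795-SG1 carrying the SG1 human heavy chain constant region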

| Binder | KD fold (SG1 = 1) [fold] |
| --- | --- |
| B1 | 2.5 |
| B2 | 0.7 |
| B3 | 3.8 |
| B4 | 0.8 |
| B5 | 2.7 |
| B6 | 1.5 |
| B7 | 0.8 |

Target: T3, cynomolgus monkey FcγRIIa2 …
Experiment: SPR; KD of SG1 / KD of variant;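 note: relative to parent M103205H795-SG1 carrying the SG1 human heavy chain constant region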

| Binder | KD fold (SG1 = 1) [fold] |
| --- | --- |
| B1 | 3.2 |
| B2 | 1.4 |
| B3 | 4.3 |
| B4 | 1.6 |
| B5 | 8.9 |
| B6 | 1.8 |
| B7 | 1.7 |

target: T4, human FcγRIIb extracellular domain, …; experiment: SPR; KD of SG1 / KD of variant;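 note: relative to parent M103205H795-SG1 carrying the SG1 human heavy chain constant region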

| Binder | KD fold (SG1 = 1) [fold] |
| --- | --- |
| B1 | 2.9 |
| B2 | 1.9 |
| B3 | 3.1 |
| B4 | 0.5 |
| B5 | 2.3 |
| B6 | 1.8 |
| B7 | 0.7 |

Target: T5, cynomolgus monkey FcγRIIa1 …
Experiment: SPR; KD of SG1 / KD of variant

| Binder | KD fold (SG1 = 1) [fold] |
| --- | --- |
| B1 | 2 |
| B2 | 0.6 |
| B3 | 3.2 |
| B4 | 1.7 |
| B5 | 2.7 |
| B6 | 1.4 |
| B7 | 1.3 |

Target: T6, human FcγRIIaR extracellular domain, …
Experiment: SPR; KD of SG1 / KD of variant

| Binder | KD fold (SG1 = 1) [fold] |
| --- | --- |
| B1 | 2.8 |
| B2 | 2.4 |
| B3 | 2.3 |
| B4 | 2.1 |
| B5 | 2.2 |
| B6 | 1.5 |
| B7 | 0.8 |

target: T8, human FcγRIIIaV extracellular domain, His-tagged (human, UniProt P08637 17-208); experiment: SPR; KD of SG1 / KD of variant
T8 construct: also called FcgRIIIaV
T8 sequence (P08637 17-208 F176V): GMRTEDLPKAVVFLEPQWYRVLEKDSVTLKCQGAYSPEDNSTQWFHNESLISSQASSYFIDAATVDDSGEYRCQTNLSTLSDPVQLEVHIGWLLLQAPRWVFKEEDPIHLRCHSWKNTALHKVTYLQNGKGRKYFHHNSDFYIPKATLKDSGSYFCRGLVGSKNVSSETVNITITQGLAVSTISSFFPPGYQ

| Binder | KD fold (SG1 = 1) [fold] |
| --- | --- |
| B1 | 3.38 |
| B2 | 1.59 |
| B3 | 6.75 |
| B4 | 0.16 |
| B5 | 2.38 |
| B6 | 1.16 |
| B7 | 0.37 |

Target: T7, cynomolgus monkey FcγRIIa3 …
Experiment: SPR; KD of SG1 / KD of variant

| Binder | KD fold (SG1 = 1) [fold] |
| --- | --- |
| B1 | 2.6 |
| B2 | 1.5 |
| B3 | 6.5 |
| B4 | 1.4 |
| B5 | 3.3 |
| B6 | 3.6 |
| B7 | 0.7 |
